Paper PMC8940645

Assays:
[1] = confocal immunofluorescence, giantin co-staining; details: glycan lost; control: wild type
[2] = active lysate incubation, R4-ICD/FGFR4 immunoblot ratio; details: glycan lost; control: wild type
[3] = NGI-1 overnight, R4-ICD immunoblot; details: glycan lost; control: vehicle
[4] = kifunensine 5 μM time course, R4-ICD immunoblot; details: glycan changed form; control: 0 h kifunensine

FGFR4: N311Q
localisation_or_trafficking [1]: no change
other: proteolytic processing, other: relative scale 0 to 3+ [2]: decreases, ++ vs +++

FGFR4: N322Q
localisation_or_trafficking [1]: no change

FGFR4: NGI-1 10 μM
other: proteolytic processing [3]: increases

FGFR4: kifunensine 16 h
other: proteolytic processing [4]: no change

FGFR4: NGI-1 100 μM
other: proteolytic processing [3]: no change

FGFR4: N290Q
localisation_or_trafficking [1]: no change
other: proteolytic processing, other: relative scale 0 to 3+ [2]: abolishes, 0 vs +++

FGFR4: kifunensine 8 h
other: proteolytic processing [4]: increases
